Experimental findings from paper PMC7766085 are described below.

For assay [1], the target named is AT1R, endogenous in mouse lung (mouse (endogenous in CD-1 mouse lung)) (UniProt P29754). Nature of the assay: proximity ligation; in situ PLA on fixed 30 µm lung sections of 19-day fetal CD-1 mice; primary antibodies to the receptor and to ACE2, Duolink II probes anti-rabbit plus and anti-mouse minus; confocal microscopy.
Assay [2] concerns the target MasR, endogenous in mouse lung (mouse (endogenous in CD-1 mouse lung)) (UniProt P30554). The description is as above.
Chain of UniProt P30554 (P30554 whole entry): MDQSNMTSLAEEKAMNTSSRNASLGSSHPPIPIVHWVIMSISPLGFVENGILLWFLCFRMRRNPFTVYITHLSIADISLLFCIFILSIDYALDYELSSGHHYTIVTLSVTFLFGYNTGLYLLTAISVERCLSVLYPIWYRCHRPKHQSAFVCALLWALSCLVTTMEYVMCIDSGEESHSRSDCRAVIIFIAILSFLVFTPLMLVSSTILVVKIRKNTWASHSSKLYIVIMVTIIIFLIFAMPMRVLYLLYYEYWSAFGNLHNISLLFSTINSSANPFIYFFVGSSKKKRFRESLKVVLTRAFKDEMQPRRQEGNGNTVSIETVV
For assay [3], the target named is AT1R, endogenous in mouse lung (mouse (endogenous in CD-1 mouse lung)) (UniProt P29754). In words: proximity ligation; in situ PLA on fixed 30 µm lung sections of adult CD-1 mice; primary antibodies to the receptor and to ACE2, Duolink II probes anti-rabbit plus and anti-mouse minus; confocal microscopy.
Assay [4] addresses MasR, endogenous in mouse lung (mouse (endogenous in CD-1 mouse lung)) (UniProt P30554). The description is as above.
For assay [5], the target named is AT2R, endogenous in mouse lung (mouse (endogenous in CD-1 mouse lung)) (UniProt P35374). In words: proximity ligation; in situ PLA on fixed 30 µm lung sections of 19-day fetal CD-1 mice; primary antibodies to the receptor and to ACE2, Duolink II probes anti-rabbit plus and anti-mouse minus; confocal microscopy.
Chain of UniProt P35374 (P35374 whole entry): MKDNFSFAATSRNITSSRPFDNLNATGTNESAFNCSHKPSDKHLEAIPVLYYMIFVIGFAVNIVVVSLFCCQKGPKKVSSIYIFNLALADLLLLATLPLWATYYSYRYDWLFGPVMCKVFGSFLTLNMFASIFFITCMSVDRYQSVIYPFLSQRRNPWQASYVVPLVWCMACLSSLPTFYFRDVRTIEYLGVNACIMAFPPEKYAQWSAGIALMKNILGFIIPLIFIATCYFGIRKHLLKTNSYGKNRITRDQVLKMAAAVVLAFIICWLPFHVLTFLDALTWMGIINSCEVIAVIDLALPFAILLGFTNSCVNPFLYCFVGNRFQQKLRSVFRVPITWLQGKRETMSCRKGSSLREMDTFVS
Assay [6] has the same target. In words: proximity ligation; in situ PLA on fixed 30 µm lung sections of adult CD-1 mice; primary antibodies to the receptor and to ACE2, Duolink II probes anti-rabbit plus and anti-mouse minus; confocal microscopy.

Chain of UniProt P29754 (P29754 whole entry): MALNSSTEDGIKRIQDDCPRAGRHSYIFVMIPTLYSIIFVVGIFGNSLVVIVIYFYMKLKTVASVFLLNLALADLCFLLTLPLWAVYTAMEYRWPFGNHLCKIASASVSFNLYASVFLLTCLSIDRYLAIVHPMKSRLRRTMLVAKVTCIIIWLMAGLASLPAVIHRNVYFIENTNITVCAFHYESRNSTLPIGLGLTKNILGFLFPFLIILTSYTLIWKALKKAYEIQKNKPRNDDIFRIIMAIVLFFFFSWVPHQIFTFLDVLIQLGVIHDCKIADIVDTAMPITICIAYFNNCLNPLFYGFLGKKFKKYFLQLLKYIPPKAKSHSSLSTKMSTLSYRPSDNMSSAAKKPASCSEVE

Consider “ACE2, endogenous in mouse lung (from UniProt Q8R0I0 18-805) (enzyme)”, for which the percent of cells with PLA signal in assay [1] was < 1 % of cells; in assay [2], < 1 % of cells; in assay [3], 14 % of cells; in assay [4], 8 % of cells. The red dots per dot-containing cell (red dots/cell-expressing dots) in assay [3] turned out to be 10; in assay [4], 7.

Regarding “ACE2, endogenous in mouse lung (from UniProt Q8R0I0 18-805) (proximity to ACE2)”, the percent of cells with PLA signal in assay [5] is < 1 % of cells; in assay [6], 11 % of cells. Besides, the red dots per dot-containing cell (red dots/cell-expressing dots) in assay [6] turned out to be 6.
